For one sequence, binding signal (% loss of binding vs wild type) results are on record in PMC6505963.

This series addresses GST-BLM RQC loopΔ10 (human) (UniProt P54132). Nature of the series: EMSA. The note with it: 5 uM protein, FP: 10 mM Tris-HCl pH 7.5, 25 mM NaCl, 1 mM DTT, 100 pM DNA, 25 C, EMSA: 10 mM Tris-HCl pH 8.0, 2 mM DTT, 1 mM EDTA, 20% glycerol, 0.2 uM DNA, 4 C, 30 min.

Chain of GST-BLM RQC loopΔ10 (human) (P54132 1068-1209, stated change not applied): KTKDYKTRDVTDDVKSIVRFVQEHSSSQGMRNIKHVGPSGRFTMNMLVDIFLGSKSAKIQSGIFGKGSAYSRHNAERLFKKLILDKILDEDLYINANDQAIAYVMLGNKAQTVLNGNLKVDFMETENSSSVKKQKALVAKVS

As for “CTAGAACAGCATGTCCTAGCAAGCCAGAATTC / GAATTCTGGCTTGCTAGGACATCTTTGCCCAC / GTGGGCAAAGATGTCCTAGCAATGTAATCGTC / GACGATTACATTGCTAGGACATGCTGTTCTAG [Holliday junction (HJ)]”, the binding signal (% loss of binding vs wild type) was determined as 50.
